Data published in US20230257722.

Experiments:
Assay in all cases: cell_activity
[1] = system: TL4409 SMARCA4 left TALE-SEQ8 nuclease (synthetic); conditions: A549, mRNA, pair with p8R; Table 10 70.4% cleavage
[2] = system: TL4409 SMARCA4 left TALE-SEQ2 nuclease (synthetic); conditions: A549, mRNA, pair with p2R; Table 10 67.6% cleavage
[3] = system: TL4409 SMARCA4 left TALE-FokI (synthetic); conditions: A549, mRNA, pair with pFR
[4] = system: TL4409 SMARCA4 left TALE-SEQ5 nuclease (synthetic); conditions: A549, mRNA, pair with p5R; no cleavage, binding not measured
[5] = system: TL4409 SMARCA4 left TALE-SEQ1 nuclease (synthetic); conditions: A549, mRNA, pair with p1R; Table 10 59.7% cleavage
[6] = system: TL4409 SMARCA4 left TALE-SEQ7 nuclease (synthetic); conditions: A549, mRNA, pair with p7R; no cleavage, binding not measured
[7] = system: TL4409 SMARCA4 left TALE-SEQ4 nuclease (synthetic); conditions: A549, mRNA, pair with p4R; Table 10 94.5% cleavage
[8] = system: TL4409 SMARCA4 left TALE-SEQ6 nuclease (synthetic); conditions: A549, mRNA, pair with p6R; Table 10 75.2% cleavage
[9] = system: TL4412 SMARCA4 right TALE-SEQ6 nuclease (synthetic); conditions: A549, mRNA, pair with p6L; Table 10 75.2% cleavage
[10] = system: TL4412 SMARCA4 right TALE-FokI (synthetic); conditions: A549, mRNA, pair with pFL
[11] = system: TL4412 SMARCA4 right TALE-SEQ7 nuclease (synthetic); conditions: A549, mRNA, pair with p7L; no cleavage, binding not measured
[12] = system: TL4412 SMARCA4 right TALE-SEQ4 nuclease (synthetic); conditions: A549, mRNA, pair with p4L; Table 10 94.5% cleavage
[13] = system: TL4412 SMARCA4 right TALE-SEQ2 nuclease (synthetic); conditions: A549, mRNA, pair with p2L; Table 10 67.6% cleavage
[14] = system: TL4412 SMARCA4 right TALE-SEQ1 nuclease (synthetic); conditions: A549, mRNA, pair with p1L; Table 10 59.7% cleavage
[15] = system: TL4412 SMARCA4 right TALE-SEQ8 nuclease (synthetic); conditions: A549, mRNA, pair with p8L; Table 10 70.4% cleavage
[16] = system: TL4412 SMARCA4 right TALE-SEQ5 nuclease (synthetic); conditions: A549, mRNA, pair with p5L; no cleavage, binding not measured

Row | Sequence | activity [1] | activity [2] | activity [3] | activity [4] | activity [5] | activity [6] | activity [7] | activity [8] | activity [9] | activity [10] | activity [11] | activity [12] | activity [13] | activity [14] | activity [15] | activity [16]
1 | GGCGTGTCCCAGGCCCTTGC (double strand) [SMARCA4 left half-site] | 38 % indels | 8 % indels | 74 % indels | 0 % indels | 42 % indels | 0 % indels | 87 % indels | 1 % indels | – | – | – | – | – | – | – | –
2 | ACTGAGAGAGTGGACAAGC (double strand) [SMARCA4 right half-site (top strand)] | – | – | – | – | – | – | – | – | 1 % indels | 74 % indels | 0 % indels | 87 % indels | 8 % indels | 42 % indels | 38 % indels | 0 % indels
